Experimental data published in article PMC4259466 (Nature communications, 2014).

Target: Aurora B-phosphorylated WT His-PKM2 (human, UniProt P14618 1-531, phosphothreonine at 45 (by Aurora B in vitro))
Test: pull-down

Chain of Aurora B-phosphorylated WT His-PKM2 (P14618 whole entry): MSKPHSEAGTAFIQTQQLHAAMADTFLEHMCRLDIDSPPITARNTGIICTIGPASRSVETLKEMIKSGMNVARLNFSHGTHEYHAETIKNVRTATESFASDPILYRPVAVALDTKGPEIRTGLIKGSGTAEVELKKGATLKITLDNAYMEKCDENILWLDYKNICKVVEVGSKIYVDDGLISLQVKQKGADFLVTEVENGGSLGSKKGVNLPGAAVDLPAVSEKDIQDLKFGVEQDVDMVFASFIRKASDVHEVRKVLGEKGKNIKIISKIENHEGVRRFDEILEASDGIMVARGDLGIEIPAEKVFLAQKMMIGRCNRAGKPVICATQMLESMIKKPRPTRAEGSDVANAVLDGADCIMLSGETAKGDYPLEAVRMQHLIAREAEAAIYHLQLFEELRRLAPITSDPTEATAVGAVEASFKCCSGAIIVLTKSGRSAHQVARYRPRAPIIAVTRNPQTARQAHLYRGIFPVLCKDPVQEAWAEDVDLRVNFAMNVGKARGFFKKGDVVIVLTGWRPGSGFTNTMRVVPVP

B1: GST-MLC2 (wild type, recombinant) (natural protein)
chain: MAPKKAKKRAGGANSNVFSMFEQTQIQEFKEAFTIMDQNRDGFIDKNDLRDTFAALGRVNVKNEEIDEMIKEAPGPINFTVFLTMFGEKLKGADPEETILNAFKVFDPEGKGVLKADYVREMLTTQAERFSKEEVDQMFAAFPPDVTGNLDYKNLVHIITHGEEKD
B1: binds.
